Values of other authors in article PMC10872408 (Structure (London, England : 1993), 2023).

Target: Gαi3 (Rattus norvegicus) (UniProt P08753)
Conditions: cited from earlier work

Gαi3 (Rattus norvegicus), sequence (P08753 2-354): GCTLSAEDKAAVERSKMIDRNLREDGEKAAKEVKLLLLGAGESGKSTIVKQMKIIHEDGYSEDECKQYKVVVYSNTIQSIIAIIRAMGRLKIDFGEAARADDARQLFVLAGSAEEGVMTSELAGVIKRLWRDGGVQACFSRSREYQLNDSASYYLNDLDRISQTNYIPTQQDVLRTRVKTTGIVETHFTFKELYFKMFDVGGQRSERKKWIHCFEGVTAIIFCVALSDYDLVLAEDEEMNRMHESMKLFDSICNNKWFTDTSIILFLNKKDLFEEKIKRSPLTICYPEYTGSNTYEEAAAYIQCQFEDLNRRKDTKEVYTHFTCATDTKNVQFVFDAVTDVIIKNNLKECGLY
GINIP, sequence (Q9UPV7 2-400): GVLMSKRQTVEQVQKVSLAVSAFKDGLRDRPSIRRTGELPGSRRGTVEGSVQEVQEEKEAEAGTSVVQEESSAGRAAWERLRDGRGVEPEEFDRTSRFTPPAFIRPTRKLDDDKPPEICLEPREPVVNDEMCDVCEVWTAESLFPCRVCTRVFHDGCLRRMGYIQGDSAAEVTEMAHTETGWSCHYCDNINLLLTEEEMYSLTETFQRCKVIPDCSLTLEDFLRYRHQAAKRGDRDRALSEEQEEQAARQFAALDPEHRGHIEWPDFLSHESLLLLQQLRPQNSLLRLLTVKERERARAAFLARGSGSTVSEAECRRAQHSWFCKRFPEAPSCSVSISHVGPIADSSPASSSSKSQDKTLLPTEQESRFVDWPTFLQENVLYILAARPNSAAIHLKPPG

Substance: GINIP (from UniProt Q9UPV7)
- Kd: 0.065 µM
